# Results from the supplement of paper PMC10567573.
# ± gives the standard deviation.
# Experiment: protein stability index of a GFP-peptide fusion (GPS, HEK-293T) (PSI 1-6); higher = more stable
# Details: c terminus: a fixed tail appended
# 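Further: 24-mer peptide tiles fused after GFP, lentivirally expressed, FACS-sorted into six equal bins by GFP/DsRed ratio, decoded by Illumina sequencing, PSI is the read-weighted mean bin number.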
Sequence,protein stability index (treatment: DMSO),"protein stability index (treatment: MLN4924 1 uM, 8 h)"
HLTVVAIFYGSGIFNYMRLGSTKL [OR3A1],3.1 ± 0.62,2.76 ± 0.37
FVATFLRYAVVLNATWLVNSAAHL [SCD],3.31 ± 0.7,2.97 ± 0.33
FLQVLEPGARGLWKPPDIKGKLMV [SPAG8],2.38 ± 0.34,2.26 ± 0.32
AVVVLDQGSRHWQKLREESAARVV [DUSP5],2.85 ± 0.34,2.72 ± 0.23
HLPVTFPGKDYDADRQCQLTFGPD [ADAMTS4],4.12 ± 0.26,4.38 ± 0.24
GDSGFLVVRGGEVVHRSDEQQHYF [PPTC7],3.75 ± 0.41,3.54 ± 0.23
YRTVVRPTYKVMYKIVTAREWRCC [EMID1],2.71 ± 0.79,2.38 ± 0.44
MEALDLQPGLSFLNLGSGTGYLSS [PCMTD2],3.4 ± 0.36,3.45 ± 0.4
MADWARAQSPGAVEEILDRENKRM [BET1L],4.71 ± 0.35,4.75 ± 0.21
PQGLFRGGKSGELEQEEERLSKEW [CHGA],5.19 ± 0.39,5.42 ± 0.19
HVTVENVQELLPAACLLQLKGVKQ [KLHL12],2.96 ± 0.33,3.15 ± 0.11
TGEIMHALKMTWHVHCFTCAACKT [PDLIM7],2.69 ± 0.33,2.27 ± 0.25
NMNDNFLEGEEENELTLNEKNFFP [CHGB],4.71 ± 0.16,4.81 ± 0.14
PCWKITLFVIVPVLGPLVALIICY [MOG],2.87 ± 0.98,2.88 ± 1.2
GNDRRREWAALGNMSKEDAMVEFV [ACBD3],4.11 ± 0.24,4.3 ± 0.26
DRETQEGKPPTAHLDRTSVSSLSE [ELOA2],5.37 ± 0.34,5.42 ± 0.21
DSEEPVSTHQEAENEKDRADQTVL [CHGB],5.29 ± 0.56,5.65 ± 0.27
LMVGPNFRVGKKIGCGNFGELRLG [CSNK1G3],1.9 ± 0.23,2.58 ± 0.59
NFLFRNAASTLTERPCYNRRASKL [ANKRD40],3.19 ± 0.28,3.4 ± 0.12
ETYMSADDLRINLWHLAITDRSFN [PPP2R2C],2.23 ± 0.32,2.36 ± 0.29
QPLADEGPPGRSIGGAAPSLGALD [SERTAD1],5.19 ± 0.24,5.32 ± 0.15
KAPDIECVLRCSVLEIEQSMNRVK [FEM1B],2.3 ± 0.41,2.55 ± 0.51

Sequence,protein stability index (treatment: DMSO),"protein stability index (treatment: MLN4924 1 uM, 8 h)"
LSMVSECLFSLINGDDMFVTFAAM [MCOLN1],2.35 ± 0.43,2.31 ± 0.3
KIKAIMALVAAILLLVIIILIVMK [VAMP4],2.47 ± 0.51,2.41 ± 0.8
TTTSAATATTAPPALDIFGDLFES [SNAP91],4.47 ± 0.1,4.68 ± 0.16
KTIEDLRNKIIAATIENAQPILQI [KRT16],2.36 ± 0.25,2.33 ± 0.1
GQVIWGMSWAKLARQATNLKVNFF [FBXO39],2.2 ± 0.72,2.2 ± 0.52
RFGVRPKVTGYLISYSSMLGAVAG [MFSD9],2.58 ± 0.54,2.29 ± 0.31
EEEDLRRRLKYFFMSPCDKFRAKG [MCOLN1],2.65 ± 0.41,3.15 ± 0.5
LRLPMLNTEVVQVAAGRTQKAGVT [NEK8],3.1 ± 0.33,3.47 ± 0.23
KQNKTPLDKSTTGVSEILLKTQMK [FEM1B],4.36 ± 0.15,4.2 ± 0.2
TSGKRYVYRFVCDLQNLLGFTPEE [ETS2],2.56 ± 0.63,2.89 ± 0.84
ITRESHTHRDRPSQQQPLRNQVVS [CSNK1G1],4.49 ± 0.21,4.37 ± 0.23
MNLELLESFGQNYPEEADGTLDCI [RBBP5],4.77 ± 0.25,4.89 ± 0.12
PLLSPLLASRNPCPWHYLHLSGSH [RSPH3],2.15 ± 0.23,2.01 ± 0.2
QHLKYKEHPEALSCLLLQLRREKP [INTS3],2.68 ± 0.16,3 ± 0.32
LLRTFDAGEFTGWEKVGSGGFGQV [RIPK4],2.43 ± 0.56,2.53 ± 0.094
SKVIEILDSQTEIYQYVQNSMAPH [DLC1],2.6 ± 0.3,2.71 ± 0.28
LFAGFLPRIIKAAPSCAIMISTYE [SLC25A39],2.8 ± 0.31,3.21 ± 0.75
LEDLESELDDPGQPVSLRRRKREV [ZNF24],5.38 ± 0.09,5.49 ± 0.16
DGKRVIVVFHCEFSSERGPRMCRY [CDC25A],2.64 ± 0.53,2.73 ± 0.78
AMVEFVKLLNRCCHLFSTYVASHK [ACBD3],2.97 ± 0.19,2.85 ± 0.16
KLPATMPEPVYFHCAAVTPAGCMY [KLHDC10],2.27 ± 0.23,2.08 ± 0.19
DFDEEYFSNTSELAKDFIRRLLVK [DAPK3],2.77 ± 0.28,3.12 ± 0.3
